# T1: CD19 (UniProt P15391 20-291)
# T1 sequence (looked up): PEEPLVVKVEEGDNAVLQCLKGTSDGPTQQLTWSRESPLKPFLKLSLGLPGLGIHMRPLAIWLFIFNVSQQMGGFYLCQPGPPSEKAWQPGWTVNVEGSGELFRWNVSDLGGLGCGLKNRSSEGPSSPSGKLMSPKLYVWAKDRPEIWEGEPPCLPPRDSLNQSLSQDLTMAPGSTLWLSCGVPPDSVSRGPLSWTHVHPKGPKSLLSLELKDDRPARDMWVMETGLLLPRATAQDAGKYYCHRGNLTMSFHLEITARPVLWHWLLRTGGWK
# B1: B19c66 (one-arm antibody) (antibody, human IgG1, kappa)
# light: not shown
# heavy: not shown
# chain: CPPCPAPELLGGPSVFLFPPKPKDTLMISRTPEVTCVVVDVSHEDPEVKFNWYVDGVEVHNAKTKPREEQYNSTYRVVSVLTVLHQDWLNGKEYKCKVSNKALPAPIEKTISKAKGQPREPQVYVYPPSRDELTKNQVSLTCLVKGFYPSDIAVEWESNGQPENNYKTTPPVLDSDGSFALVSKLTVDKSRWQQGNVFSCSVMHEALHNHYTQKSLSLSPGK
# Legend:
# [1] = molecular target: recombinant human Fc gamma receptor CD16a 158V (FcRγIIIa) (human, UniProt P08637 17-208)
# Chain of recombinant human Fc gamma receptor CD16a 158V (FcRγIIIa) (P08637 17-208 F176V limits assumed): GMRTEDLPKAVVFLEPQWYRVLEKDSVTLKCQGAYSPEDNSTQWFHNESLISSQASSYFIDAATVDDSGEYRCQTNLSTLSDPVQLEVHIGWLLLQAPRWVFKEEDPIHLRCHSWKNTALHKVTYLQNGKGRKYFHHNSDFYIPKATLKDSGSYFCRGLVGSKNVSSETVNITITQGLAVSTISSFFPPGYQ
# [2] = molecular target: T1, CD19
binder,measurement,setting,value
B1,Kd,[1],234 nM
same,Kd,[2],21.8 nM
